Data taken from EP4588939A1 (Universitat de Barcelona, dated 2025).

T1: human IL13Rα2 (interleukin-13 receptor subunit alpha-2) (human, UniProt Q14627 27-380)
T1 construct: whole, on cells; also called IL13Ra2
T1 sequence (looked up): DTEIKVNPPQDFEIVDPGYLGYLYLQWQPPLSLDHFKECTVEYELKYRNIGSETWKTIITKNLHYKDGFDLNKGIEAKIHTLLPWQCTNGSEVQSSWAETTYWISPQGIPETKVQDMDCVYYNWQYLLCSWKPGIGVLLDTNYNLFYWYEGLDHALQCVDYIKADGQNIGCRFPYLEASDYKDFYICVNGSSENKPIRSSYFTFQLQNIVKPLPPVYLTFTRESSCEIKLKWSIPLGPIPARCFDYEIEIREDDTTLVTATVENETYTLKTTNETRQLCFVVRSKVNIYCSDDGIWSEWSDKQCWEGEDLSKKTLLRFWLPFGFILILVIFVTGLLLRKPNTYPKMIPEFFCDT

B1: 6A murine anti-IL13Rα2 monoclonal antibody (antibody, V domains shown)
VH: EVQLQQSGPELVKPGASVKISCKTSGYTFTEYTMHWVKQSHGKSLEWIGIINPNNGGTNYNQKFKGKATLTVDKSSSTAYMELRSLTSEDSAVYYCARPSATHYFDYWGQGTTLTVSS
VL: DIKMTQSPSSMYASLGERVTITCKASQDIKSYLSWFQQKPGKSPKTLIYRANRLVDGVPSRFSGSGSGQDYSLTISSLEYEDMGIYYCLQYDEFPLTFGAGTKLELK
notes: Tested as hybridoma supernatant; also called IL13Rα2_6A; clone 6A
B2: 143A murine anti-IL13Rα2 monoclonal antibody (antibody, V domains shown)
VH: DVQLVESGGGLVQPGGSRKLSCAASGFTFSSFGMHWVRQAPEKGLEWVAYISSGSSTIYYADTVKGRFIISRDNPKNTLFLQMTSLRSEDTAMYYCARKYEGYAMDYWGQGTSVTVSS
VL: DIKMTQSPSSMYASLGERVTITCKASQDINSYLSWFQQKPGKSPKTLIYRANRLVDGVPSRFSGSGSGQDYSLTISSLEYEDMGIYSCLQYDEFPLTFGAGTKLELK
notes: Tested as hybridoma supernatant; also called IL13Rα2_143A; clone 143A
B3: 46A murine anti-IL13Rα2 monoclonal antibody (antibody, V domains shown)
VH: QVQLKQSGPGLVQPSQSLSITCTVSGFSITKYGVHWVRLSPGKGLEWLGVIWSGGSTDYNAAFISRLNISKDNSKSQVFFKMNSLQANDTAIYYCARDFGDTMDYWGQGTSVTVSS
VL: QIVLTQSPAIMSASLGERVTMTCTASSSVTSSYLHWYQQKPGSSPKLWIFSTSNLASGVPARFSGSGSGTSYSLTISSMEAEDAATYYCHQYHRSPLTFGAGTKLELK
notes: Tested as hybridoma supernatant; also called IL13Rα2_46A; clone 46A
B4: 82B murine anti-IL13Rα2 monoclonal antibody (antibody, V domains shown)
VH: QVQLKQSGPGLVQPSQSLSITCTVSGFSLTSYGVHWVRQSPGKGLEWLGVIWSGGSTDYNAAFISRLSISKDNSKSQVFFKMNSLQANDTAIYYCARDRYDAFDYWGQGTTLTVSS
VL: QIVLTQSPAIMSASLGERVTMTCTASSSVSSSYLHWYQQKPGSSPKLWIYSTSNLASGVPARFSGSGSGTSYSLTISSMEAEDAATYYCHQYHRSPLTFGAGTKLELK
notes: Tested as hybridoma supernatant; also called IL13Rα2_82B; clone 82B

Each binder was assayed against T1, human IL13Rα2 (interleukin-13 receptor …) (assay: flow cytometry of hybridoma supernatants on IL13Rα2-transfected 300.19 cells; specificity further validated on IL13Rα2-transfected COS cells and U251 cells).
B1: binds.
B2: binds.
B3: binds.
B4: binds.
